Patent publication US20250152746A1, “BASE EDITING OF ANGPTL3 AND METHODS OF USING SAME FOR TREATMENT OF DISEASE” (Verve Therapeutics, Inc., priority 2020, published 2025)
In the oligonucleotide strings, read from the 5' end, every base follows the letter of its sugar. An asterisk marks phosphorothioate; unmarked linkages are phosphodiester. Other units and linkages are bracketed, terminal groups are in braces. A string of capitals states the bases alone. m = 2'-O-methyl; r = 2'-OH (RNA)

B1: GA236: PCSK9 gRNA; protospacer AGCCCTCGCCAGGCGCTGGC (SEQ ID NO: 229) (nucleic acid)
guide: AGCCCUCGCCAGGCGCUGGCGUUUUAGAGCUAGAAAUAGCAAGUUAAAAUAAGGCUAGUCCGUUAUCAACUUGAAAAAGUGGCACCGAGUCGGUGCUUUU
modifications: sugars from the 5' end m3 r94 m3, linkages s3 o93 s3 (s phosphorothioate, o phosphodiester), T or U not given here
B2: GA237: PCSK9 gRNA; protospacer CAACGCCGCCTGCCAGCGCC (SEQ ID NO: 230) (nucleic acid)
guide: CAACGCCGCCUGCCAGCGCCGUUUUAGAGCUAGAAAUAGCAAGUUAAAAUAAGGCUAGUCCGUUAUCAACUUGAAAAAGUGGCACCGAGUCGGUGCUUUU
modifications: sugars from the 5' end m3 r94 m3, linkages s3 o93 s3 (s phosphorothioate, o phosphodiester), T or U not given here
B3: GA239: PCSK9 gRNA; protospacer CCGCCTGCCAGCGCCTGGCG (SEQ ID NO: 232) (nucleic acid)
guide: CCGCCUGCCAGCGCCUGGCGGUUUUAGAGCUAGAAAUAGCAAGUUAAAAUAAGGCUAGUCCGUUAUCAACUUGAAAAAGUGGCACCGAGUCGGUGCUUUU
modifications: sugars from the 5' end m3 r94 m3, linkages s3 o93 s3 (s phosphorothioate, o phosphodiester), T or U not given here
B4: GA240: PCSK9 gRNA; protospacer TGCCAGCGCCTGGCGAGGGC (SEQ ID NO: 233) (nucleic acid)
guide: UGCCAGCGCCUGGCGAGGGCGUUUUAGAGCUAGAAAUAGCAAGUUAAAAUAAGGCUAGUCCGUUAUCAACUUGAAAAAGUGGCACCGAGUCGGUGCUUUU
modifications: sugars from the 5' end m3 r94 m3, linkages s3 o93 s3 (s phosphorothioate, o phosphodiester), T or U not given here
B5: GA241: PCSK9 gRNA; protospacer TGCTGCTGCCCCTGGCGGGT (SEQ ID NO: 234) (nucleic acid)
guide: UGCUGCUGCCCCUGGCGGGUGUUUUAGAGCUAGAAAUAGCAAGUUAAAAUAAGGCUAGUCCGUUAUCAACUUGAAAAAGUGGCACCGAGUCGGUGCUUUU
modifications: sugars from the 5' end m3 r94 m3, linkages s3 o93 s3 (s phosphorothioate, o phosphodiester), T or U not given here
B6: GA162: PCSK9 gRNA; protospacer GGACGGCGACTACGAGGAGC (SEQ ID NO: 156) (nucleic acid)
guide: mG*mG*mA*rCrGrGrCrGrArCrUrArCrGrArGrGrArGrCrGrUrUrUrUrArGrArGrCrUrArGrArArArUrArGrCrArArGrUrUrArArArArUrArArGrGrCrUrArGrUrCrCrGrUrUrArUrCrArArCrUrUrGrArArArArArGrUrGrGrCrArCrCrGrArGrUrCrGrGrUrGrCrU*mU*mU*mU
B7: GA245: PCSK9 gRNA; protospacer GTGCTGCTGCCCCTGGCGGG (SEQ ID NO: 238) (nucleic acid)
guide: GUGCUGCUGCCCCUGGCGGGGUUUUAGAGCUAGAAAUAGCAAGUUAAAAUAAGGCUAGUCCGUUAUCAACUUGAAAAAGUGGCACCGAGUCGGUGCUUUU
modifications: sugars from the 5' end m3 r94 m3, linkages s3 o93 s3 (s phosphorothioate, o phosphodiester), T or U not given here
B8: GA246: PCSK9 gRNA; protospacer GCCAGCGCCTGGCGAGGGCT (SEQ ID NO: 239) (nucleic acid)
guide: GCCAGCGCCUGGCGAGGGCUGUUUUAGAGCUAGAAAUAGCAAGUUAAAAUAAGGCUAGUCCGUUAUCAACUUGAAAAAGUGGCACCGAGUCGGUGCUUUU
modifications: sugars from the 5' end m3 r94 m3, linkages s3 o93 s3 (s phosphorothioate, o phosphodiester), T or U not given here
B9: GA247: PCSK9 gRNA; protospacer CCTCGCCAGGCGCTGGCAGG (SEQ ID NO: 240) (nucleic acid)
guide: CCUCGCCAGGCGCUGGCAGGGUUUUAGAGCUAGAAAUAGCAAGUUAAAAUAAGGCUAGUCCGUUAUCAACUUGAAAAAGUGGCACCGAGUCGGUGCUUUU
modifications: sugars from the 5' end m3 r94 m3, linkages s3 o93 s3 (s phosphorothioate, o phosphodiester), T or U not given here
B10: GA163: PCSK9 gRNA; protospacer CGTCCTCGTCCTCCTGCGCA (SEQ ID NO: 157) (nucleic acid)
guide: CGUCCUCGUCCUCCUGCGCAGUUUUAGAGCUAGAAAUAGCAAGUUAAAAUAAGGCUAGUCCGUUAUCAACUUGAAAAAGUGGCACCGAGUCGGUGCUUUU
modifications: sugars from the 5' end m3 r94 m3, linkages s3 o93 s3 (s phosphorothioate, o phosphodiester), T or U not given here
B11: GA164: PCSK9 gRNA; protospacer GTCCTCGTCCTCCTGCGCAC (SEQ ID NO: 158) (nucleic acid)
guide: GUCCUCGUCCUCCUGCGCACGUUUUAGAGCUAGAAAUAGCAAGUUAAAAUAAGGCUAGUCCGUUAUCAACUUGAAAAAGUGGCACCGAGUCGGUGCUUUU
modifications: sugars from the 5' end m3 r94 m3, linkages s3 o93 s3 (s phosphorothioate, o phosphodiester), T or U not given here
B12: GA165: PCSK9 gRNA; protospacer CCGTCAGCTCCAGGCGGTCC (SEQ ID NO: 159) (nucleic acid)
guide: CCGUCAGCUCCAGGCGGUCCGUUUUAGAGCUAGAAAUAGCAAGUUAAAAUAAGGCUAGUCCGUUAUCAACUUGAAAAAGUGGCACCGAGUCGGUGCUUUU
modifications: sugars from the 5' end m3 r94 m3, linkages s3 o93 s3 (s phosphorothioate, o phosphodiester), T or U not given here
B13: GA166: PCSK9 gRNA; protospacer CGCCCGTGCGCAGGAGGACG (SEQ ID NO: 160) (nucleic acid)
guide: CGCCCGUGCGCAGGAGGACGGUUUUAGAGCUAGAAAUAGCAAGUUAAAAUAAGGCUAGUCCGUUAUCAACUUGAAAAAGUGGCACCGAGUCGGUGCUUUU
modifications: sugars from the 5' end m3 r94 m3, linkages s3 o93 s3 (s phosphorothioate, o phosphodiester), T or U not given here
B14: GA167: PCSK9 gRNA; protospacer TCAGCTCCAGGCGGTCCTGG (SEQ ID NO: 161) (nucleic acid)
guide: UCAGCUCCAGGCGGUCCUGGGUUUUAGAGCUAGAAAUAGCAAGUUAAAAUAAGGCUAGUCCGUUAUCAACUUGAAAAAGUGGCACCGAGUCGGUGCUUUU
modifications: sugars from the 5' end m3 r94 m3, linkages s3 o93 s3 (s phosphorothioate, o phosphodiester), T or U not given here

What was measured:
PCSK9 gene [1] = assay: PCSK9 gRNA/SpCas9 editing in primary cynomolgus hepatocytes (Tables 2, 22); assay type: cell-based, cynomolgus monkey; conditions: SpCas9 mRNA MS002 1:1 by weight; for Cyno Primary Hepatocyte Editing % 100: 100 ng/RNA/mL; for Cyno Primary Hepatocyte Editing % 500: 500 ng/RNA/mL; for Cyno Primary Hepatocyte Editing % 2500: 2500 ng/RNA/mL
PCSK9 gene [2] = assay: PCSK9 gRNA/SpCas9 editing in primary human hepatocytes (Tables 2, 4); assay type: cell-based; conditions: SpCas9 mRNA MS002 1:1 by weight; for Human Primary Hepatocyte Editing % 100: 100 ng/RNA/mL; for Human Primary Hepatocyte Editing % 500: 500 ng/RNA/mL; for Human Primary Hepatocyte Editing % 2500: 2500 ng/RNA/mL
Summary of the method: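 Primary human hepatocytes co-transfected with PCSK9 gRNA plus SpCas9 mRNA (1:1 by weight) at 2500, 500 or 100 ng RNA/mL, or 2500–250 ng/mL for tracr-modified guides. Editing at the target site read by amplicon next-generation sequencing of extracted genomic DNA.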

| Molecule | Cyno Primary Hepatocyte Editing % 100 (PCSK9 gene [1]) [%] | Cyno Primary Hepatocyte Editing % 500 (PCSK9 gene [1]) [%] | Cyno Primary Hepatocyte Editing % 2500 (PCSK9 gene [1]) [%] | Human Primary Hepatocyte Editing % 100 (PCSK9 gene [2]) [%] | Human Primary Hepatocyte Editing % 500 (PCSK9 gene [2]) [%] | Human Primary Hepatocyte Editing % 2500 (PCSK9 gene [2]) [%] |
| --- | --- | --- | --- | --- | --- | --- |
| B1 | 2.31 | 11.62 | 37.44 | 6.92 | 3.13 | 22.41 |
| B2 | 2.17 | 13.46 | 46.01 | 4.53 | 15.83 | 36.78 |
| B3 | 0.02 | 0.55 | 4.55 | 0.06 | 1.73 | 3.49 |
| B4 | 0.52 | 1.9 | 10.62 | 1.05 | 0.24 | 7.94 |
| B5 | 0.97 | 2.94 | 16.11 | 0.61 | 1.49 | 5.39 |
| B6 | 1.62 | 11.18 | 28.26 | 2.14 | 12.97 | 42.8 |
| B7 | 0.19 | 0.88 | 7.07 | 1.68 | 2.97 | 2.9 |
| B8 | 1.11 | 5.78 | 24.63 | 0.08 | 2.17 | 17.95 |
| B9 | 0.71 | 2.62 | 11.48 | 0.25 | 0.17 | 6.76 |
| B10 | 5.99 | 17.69 | 49.50 | 2.31 | 9.2 | 29.32 |
| B11 | 2.75 | 13.96 | 34.89 | 2.68 | 11.12 | 25.77 |
| B12 | 5.43 | 18.00 | 35.57 | 4.99 | 22.3 | 40.27 |
| B13 | 3.93 | 14.39 | 44.77 | 2.89 | 10.99 | 36.89 |
| B14 | 11.98 | 35.98 | 66.07 | 8.2 | 25.87 | 53.71 |
